Consider two substances from US20100322897A1.

In this assay the target is human IL-17 receptor (IL-17R) on primary human bronchial epithelial (HBE) cells (human) (UniProt Q96F46). The assay can be described thus: cell-based or functional assay.

For “IL-17A (R&D Systems) (from UniProt Q16552 20-155) (ligand)”, the inhibition of DEFB104 mRNA upregulation by 100 ng/ml IL-17A in HBE cells after preincubation with 2 ug/ml anti-IL-17R antibody came to 62.5%.

Take “human IL-17F (R&D Systems) (from UniProt Q96PD4 31-163) (ligand)”: the inhibition of DEFB104 mRNA upregulation by 100 ng/ml IL-17F in HBE cells after preincubation with 2 ug/ml anti-IL-17R antibody came out at 77.6%.
